For assay [1], the target named is T1, full length human TROP2 on 293F-TROP2 cells (human, UniProt P09758 27-323).
T1 construct: also called 293F-TROP2 cells (clone ID #3A8); cell surface TROP2
T1 sequence: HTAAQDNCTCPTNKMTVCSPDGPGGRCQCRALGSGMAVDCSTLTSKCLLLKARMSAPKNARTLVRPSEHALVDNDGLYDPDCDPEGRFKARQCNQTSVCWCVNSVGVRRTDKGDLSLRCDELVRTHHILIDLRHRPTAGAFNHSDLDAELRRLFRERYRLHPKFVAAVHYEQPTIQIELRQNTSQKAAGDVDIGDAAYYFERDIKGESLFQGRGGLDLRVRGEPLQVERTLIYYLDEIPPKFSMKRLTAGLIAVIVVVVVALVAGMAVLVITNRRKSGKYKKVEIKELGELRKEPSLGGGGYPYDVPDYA
The experiment in a line: FACS on 293F-TROP2 cells, MFI.

The target in assay [2] is T2, human TROP2-his protein (human, UniProt P09758 27-274).
T2 construct: Biotin-labelled in the ELISAs, unlabelled analyte in Biacore; also called biotin-labeled human TROP2-his protein; biotin human Trop2-his
T2 sequence: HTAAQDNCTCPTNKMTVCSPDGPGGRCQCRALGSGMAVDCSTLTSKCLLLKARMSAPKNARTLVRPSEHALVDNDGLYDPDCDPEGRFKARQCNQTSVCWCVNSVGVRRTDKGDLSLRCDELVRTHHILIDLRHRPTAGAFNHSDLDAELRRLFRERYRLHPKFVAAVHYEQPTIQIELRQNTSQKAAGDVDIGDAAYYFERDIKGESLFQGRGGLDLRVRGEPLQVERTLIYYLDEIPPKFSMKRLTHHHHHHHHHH
The assay can be described thus: SPR Biacore, compared with BM2. (In general: Surface plasmon resonance follows binding to a sensor surface in real time, without labels.)

The target of assay [3] is T2, human TROP2-his protein. The assay can be described thus: SPR Biacore, human TROP2-his analyte.
The target of assay [4] is T2, human TROP2-his protein. The assay can be described thus: competitive ELISA: mouse A1E11A12D1 coated at 2 ug/mL, antibody premixed with biotin human TROP2-his; blocked: binding of TROP2-his to coated A1E11A12D1 (self-competition). The protocol:
(§1) The mouse anti-TROP2 antibodies were tested for epitope binding in a competitive ELISA assay. […] ELISA plates were washed once with wash buffer (PBS+0.05% v/v Tween-20, PBST) and then blocked with 200 μl blocking buffer (5% w/v non-fatty milk in PBST) for 2 hours at 37° C. While blocking, the anti-TROP2 antibodies or controls were diluted with biotin labeled human TROP2-his protein (SEQ ID NO: 67, 34 ng/mL in 2.5% wA non-fatty milk in PBST), starting at 80 nM with a 5-fold serial dilution, and incubated at room temperature for 40 minutes. After plate washing for 4 times, the antibody/TROP2-his protein mixtures were added to the antibody coated plates, 100 μl per well. After incubation at 37° C. for 40 minutes, plates were washed 4 times again using wash buffer. Then the plates were added and incubated with 100 μl Peroxidase Streptavidin (1:10000 dilution in PBST buffer. Jackson Immunoresearch, Cat #016-030-084) for 40 minutes at 37° C. Plates were washed again using wash buffer. Finally, TMB was added and the reaction was stopped using 1M H₂SO₄. The absorbance of each well was read on a microplate reader using dual wavelength mode with 450 nm for TMB and 630 nm as the reference wavelength, and the OD (450-630) values were plotted against antibody concentration. Data was analyzed using Graphpad Prism software and IC₅₀ values were reported.
For orientation: An ELISA detects its analyte on a solid surface through an enzyme-linked reagent.

Assay [5] has as its target T2, human TROP2-his protein. The experiment in a line: capture ELISA, captured antibody, biotin human TROP2-his in solution, OD(450-630). The protocol:
(§2) Plates were washed once with wash buffer (PBS+0.05% v/v Tween-20, PBST) and then blocked with 200 μl/well blocking buffer (5% w/v non-fatty milk in PBST) for 2 hours at 37° C. […] Plates containing captured anti-TROP2 antibodies were incubated with biotin-labeled human TROP2-his protein (prepared in house, SEQ ID NO: 67, 56.7 ng/mL in 2.5% w/v non-fatty milk in PBST, 100 μl/well) for 40 minutes at 37° C., washed 4 times, and incubated with streptavidin conjugated HRP (1:10000 dilution in PBST, Jackson Immuno Research, Cat #016-030-084, 100 μl/well) for 40 minutes at 37° C. After a final wash, plates were incubated with 100 μl/well ELISA substrate TMB (Innoreagents, Cat #TMB-S-002) at room temperature. The reaction was stopped in 3-10 minutes at room temperature with 50 μl/well 1M H₂SO₄, and the absorbance of each well was read on a microplate reader using dual wavelength mode with 450 nm for TMB and 630 nm as the reference wavelength. The OD (450-630) values were plotted against antibody concentration. Data was analyzed using Graphpad Prism software and EC₅₀ values were reported.

Assay [6] addresses T2, human TROP2-his protein. The assay can be described thus: competitive ELISA: BM1 coated, antibody premixed with biotin human TROP2-his; blocked: binding of TROP2-his to coated BM1 (self-competition), OD falls from about 1.9 to about 0.05.
For assay [7], the target named is T2, human TROP2-his protein. The assay can be described thus: capture ELISA, antibody captured on anti-human IgG Fc coat, biotin human TROP2-his in solution, OD(450-630). The protocol:
as §2
For the capture ELISA, AffiniPure Goat Anti-Human IgG, Fcγ fragment specific (Jackson Immuno Research, Cat #109-005-098) was used instead of AffiniPure Goat Anti-Mouse IgG, Fcγ fragment specific, 100 μl/well.

Assay [8] deals with T2, human TROP2-his protein. The assay can be described thus: competitive ELISA: mouse A1E11A12D1 coated at 2 ug/mL, antibody premixed with biotin human TROP2-his; blocked: binding of TROP2-his to coated A1E11A12D1. The protocol: as §1
The target in assay [9] is T2, human TROP2-his protein. The experiment in a line: capture ELISA, captured antibody, biotin human TROP2-his in solution, OD(450-630). This is another data set of the same source.

A word on the EC50: it is the concentration at which the effect is half-maximal. Usually Kd stands for the equilibrium constant for the complex coming apart. Low readings indicate tighter binding, high ones weaker binding. For orientation: koff means the first-order rate constant of dissociation. High values mean fast dissociation, low ones slow dissociation. A word on the kon: it is the rate constant with which the complex forms. As a reminder, the IC50 is the midpoint of a concentration-inhibition curve. High values mean weaker potency, low ones greater potency.

B1: huA1E4F7D4-V16 (antibody, human IgG1, kappa, V domains shown)
VH: QVQLVQSGAEVKKPGASVKVSCKASGYSFTTHWIHWVRQAPGQGLEWIGTIFPSNAYAVYNQKFRDRATMTADTSISTAYIELSRLRSDDTAVYYCARASYFDYWGQGTTVTVSS
VL: EIVLTQSPATLSLSPGERATLSCRASQNIGTSIHWFQQKPGGAPRLLIKYASESISGIPSRFSGSGSGTDFTLTISSLEPEDFAVYYCQHSHSWPFTFGQGTKLEIKR
notes: Positions of the X residues are given in the claims; also called humanized antibody huA1E4F7D4-V16
Consider B1, for which the 50% effective concentration (EC50) in assay [1] came out at 362 pM. For the same molecule, the “fold higher affinity than BM2” value with human TROP2-his protein [2] was > 100 fold. In the assay with human TROP2-his protein [3], the affinity, expressed as Kd, was 196 pM; the off-rate (koff) was 7.92e-05 s⁻¹; the on-rate (kon) amounted to 404000 M⁻¹ s⁻¹.

B2: mouse antibody A1E11A12D1 (antibody, V domains shown)
VH: QVQLQQSGAELARPGASVKLSCMASGYTFTTYGISWVRQRTGQGLEWIGQIYPGSDYSYCDEDFKGKATLTADKSSSTAYMQLSSLTSEDSAVYFCARASYFDYWGQGTTLTVSS
VL: DILLTQSPAILSVSPGERVSFSCRASQTIGTAIHWYQQRANGSPRLLIKYASESISGIPSRFSGSGSGTDFALSINTVESEDFAYYYCQQSNNWPFTFGGGTKLEIR
notes: Mouse monoclonal IgG purified from hybridoma supernatant
As for B2, in the assay with human TROP2-his protein [4], the IC50 amounted to 1000 pM.

B3: benchmark (in house prepared sacituzumab) (antibody, human IgG1, kappa, V domains shown)
VH: SVQLQQSGSELKKPGASVKVSCKASGYTFTNYGMNWVKQAPGQGLKWMGWINTYTGEPTYTDDFKGRFAFSLDTSVSTAYLQISSLKADDTAVYFCARGGFGSSYWYFDVWGQGSLVTVSS
VL: DIQLTQSPSSLSASVGDRVSITCKASQDVSIAVAWYQQKPGKAPKLLIYSASYRYTGVPDRFSGSGSGTDFTLTISSLQPEDFAVYYCQQHYITPLTFGAGTKVEIKR
notes: also called BM; BM1
Regarding B3, the EC50 in the assay with human TROP2-his protein [5] worked out at 141 pM; with human TROP2-his protein [7], 270 pM. In the assay with human TROP2-his protein [6], the half-inhibitory concentration (IC50) amounted to 880 pM.

B4: mouse antibody A1E4F7D4 (antibody, V domains shown)
VH: QVQLQQSGAELAKPGTSVKMSCEASGYSFTTHWIHWMKQRPGQGLEWIGTIFPSNAYAVYNQKFRDRAIMTADRSSTTAYIQLTGLTSEDSAVYYCARASYFDYWGQGTTLTVSS
VL: DILLTQSPATLSVSPGERVTFSCRASQNIGTSIHWFQQRTTGSPRLLIKYASESISGIPSRFSGSGSGTDFTLHINSVESEDIAHYYCQHSHSWPFTFGSGTKLEIQ
notes: Mouse monoclonal IgG purified from hybridoma supernatant; also called Mouse A1E4F7D4
In the case of B4, the half-inhibitory concentration (IC50) with human TROP2-his protein [8] is 584 pM. The same molecule showed a concentration for a half-maximal effect (EC50) in the assay with human TROP2-his protein [9] of 147 pM.

For the origin of these results see patent US20240207432A1 (BIOSION, published 2024).
